Results published in patent US20220363754A1 (SHANGHAI JUNSHI BIOSCIENCES, published 2022).
Blank lines part the entries; values can stand above or below the binder they belong to.

What was measured:
[1] = biological target: T1, human TIGIT on Jurkat reporter cells (Jurkat/NFAT-Luc/hPD-1-hTIGIT) (human, UniProt Q495A1 22-244); test: cell-based or functional assay
T1 sequence (looked up): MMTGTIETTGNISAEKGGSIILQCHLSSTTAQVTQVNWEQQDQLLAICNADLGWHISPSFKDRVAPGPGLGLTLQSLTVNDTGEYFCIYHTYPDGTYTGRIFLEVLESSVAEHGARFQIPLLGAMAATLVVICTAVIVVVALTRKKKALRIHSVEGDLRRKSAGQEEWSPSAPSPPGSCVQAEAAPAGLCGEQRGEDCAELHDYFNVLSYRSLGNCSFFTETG

[2] = biological target: T2, recombinant protein hTIGIT-ECD-mFC (human; mouse, UniProt Q495A1 24-155); test: ELISA, human TIGIT-ECD-mFc coated at 0.5 ug/mL, anti-IgG4-HRP
T2 construct: range 24-155; Expressed in 293E cells; also called human TIGIT-ECD-mFc; not shown: murine IgG2a Fc domain of the vector MX2-mFc
T2 sequence (looked up): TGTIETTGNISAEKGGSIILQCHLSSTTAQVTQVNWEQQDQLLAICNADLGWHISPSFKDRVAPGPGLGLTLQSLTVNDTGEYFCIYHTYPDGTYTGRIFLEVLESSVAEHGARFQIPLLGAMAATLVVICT
Method: (§1) The solution in wells was then discarded, and the wells were washed 3 times with a washing buffer and blocked for 60 minutes with PBS containing 2% BSA. After the plate was washed 3 times with the washing buffer, humanized antibody dilutions at different concentrations were added. The antibodies were incubated at 37° C. for 60 minutes, and then the plate was washed 3 times with the washing buffer and added with 5000-fold diluted anti-IgG4-HRP. The system was incubated at 37° C. for 30 minutes, and then washed three times with the washing buffer and added with 100 μL of TMB substrate for color development. The system was incubated at room temperature for 30 minutes, and the reaction was then terminated with 100 μL of 2 M hydrochloric acid solution. The absorbance at 450 nm was measured by a plate reader.

[3] = biological target: T2, recombinant protein hTIGIT-ECD-mFC; test: ELISA, human TIGIT-ECD-mFc coated at 1 ug/mL, anti-IgG4-HRP
Method: as §1, with “chimeric” for “humanized”

[4] = biological target: T1, human TIGIT on Jurkat reporter cells …; test: cell-based or functional assay; remark: listed apart in the source
hTIGIT-Fc = biological target: T3, hTIGIT-Fc (human, UniProt Q495A1 24-155); test: SPR (Biacore T200), antibody captured by anti-human Fc, antigen in solution, 1:1 model
T3 construct: range 24-155; also called human TIGIT; not shown: Fc part of the Biacore antigen is not described (possibly the murine IgG2a Fc of hTIGIT-ECD-mFC)
T3 sequence (looked up): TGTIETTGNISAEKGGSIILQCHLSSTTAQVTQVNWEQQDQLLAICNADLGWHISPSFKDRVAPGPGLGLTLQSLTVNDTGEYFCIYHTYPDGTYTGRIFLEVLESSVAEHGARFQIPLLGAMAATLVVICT
Method: (§2) An S series CM5 chip (GE) was first loaded onto the instrument, and 40 μg/mL of goat anti-human Fc fragment antibody (Jackson ImmuneResearch) dissolved in sodium acetate-acetic acid buffer (pH 5.0) was ready to be coupled to the chip surface. The buffer used for the detection of antibody-antigen binding was HBS-EP+ from GE Healthcare. The antibodies hu3 and hu20 were each diluted to 8 μg/mL and captured on the chip surface. […] The resulting data were analyzed with a 1:1 binding model by using Biacore T200 Evaluation Software 3.0.

Cyno TIGIT-Fc = biological target: T4, Cyno TIGIT-Fc (cynomolgus monkey, UniProt A0A7N9I9V4 89-209); test: as above
T4 construct: extracellular domain; the whole named entry is XP 015300912.1; also called cynomolgus monkey TIGIT; cynoTIGIT-ECD; not shown: Fc part is not described
Method: as §2

[5] = biological target: T5, hTIGIT (FACS blocking assay of Example 10) (human, UniProt Q495A1 22-141, limits assumed); test: competitive FACS, antibody titrated from 30 ug/mL in 3-fold steps, blocking of the binding of hTIGIT to its ligand hPVR on the cell surface, MFI; unit taken from the axis Log[concentration] ng/mL
T5 construct: The protocol names only PVR-mFC and 293F-hPVR cells; which of them should be TIGIT cannot be told
T5 sequence (looked up): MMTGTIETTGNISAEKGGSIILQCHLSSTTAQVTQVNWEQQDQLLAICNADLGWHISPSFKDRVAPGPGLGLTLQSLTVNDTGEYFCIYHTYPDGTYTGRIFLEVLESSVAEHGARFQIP
Method: Briefly, antibody dilutions at different concentrations (an initial concentration of 30 μg/mL, 3-fold titration) were each mixed with PVR-mFC (1 ug/mL, 50 μL) and incubated for 30 minutes at room temperature. The mixture was then incubated with cell suspension (stable 293F-hPVR cell line, 2.5×10⁴ cells/well) for 15 minutes at 37° C. After 3 times of elution with PBS, 100 μL of goat anti-human IgG-PE antibody was added, and the system was incubated for 30 minutes in the dark. After 3 times of elution with PBS, detection was performed by FACS. Viable cells were gated on the basis of FSC/SSC, and their geometric mean fluorescence intensity was measured.

T4 sequence (A0A7N9I9V4 entry or part of it): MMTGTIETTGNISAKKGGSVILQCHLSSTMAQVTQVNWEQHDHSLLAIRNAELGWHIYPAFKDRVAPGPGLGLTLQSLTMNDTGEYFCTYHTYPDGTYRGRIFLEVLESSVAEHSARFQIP

B2: humanized antibody hu69 (antibody, V domains shown)
VH: QVQLVQSGAEVKKPGASVKVSCKASGYTFTNYWILWIRQAPGQGLEWMGDIYPGGHYTNYNEKFQGRVTLTADTSSSTAYMELSRLRSDDTAVYYCTRYYGPYAMDYWGQGTLVTVSS
VL: DIVMTQSPLSLPVTPGEPASISCRSSQSLLYNSNQKNYLAWYLQKPGQSPQLLIYWASTGESGVPDRFSGSGSGTDFTLKISRVEAEDVGVYYCQQYYSYPFTFGQGTKLEIK
notes: Humanized from 23O20; detected with anti-IgG4-HRP in the ELISA, constant regions not otherwise stated
EC50, luciferase reporter gene experiment (T cell activation) [1]: 0.103 µg/mL
EC50 [2]: 0.0107 µg/mL

B4: chimeric antibody ch4 (antibody, human IgG4, V domains shown)
VH: QVQLQQSGDELVRPGTSVKVSCQAAGYTFTNYWILWIKQRPRHGLEWIGDIYPGGHYTNYNEKFKGKATLTADTSSSTAYMQLNSLTSEDSAIYYCTRYYGPYAMDYWGQGTSVTVSS
VL: DIVMSQSPSSLPVSVGEKVTMSCKSSQSLLYNSNQKNYLAWYQQIPGQSPKLLIYWASTGESGVPDRFTGSGSGTDFTLTISSVKAEDLAVYYCQQYYSYPFTFGSGTKLEIK
notes: IgG4 chimeric antibody; also called 23O20-ch-HC / 23O20-ch-LC
EC50, luciferase reporter gene experiment (T cell activation) [1]: 0.104 µg/mL
EC50 [3]: 0.00893 µg/mL

B6: humanized antibody hu3 (antibody, human IgG4 S228P, kappa, V domains shown)
VH: QVQLVQSGAEVKKPGASVKVSCKTSGYAFTEYTMHWVRQAPGQGLEWMGGINPNTGGTTYNQKFQGRVTLTVDKSSSTAYMELSRLRSDDTVVYYCAKLLRLMYYFDYWGQGTLVTVSS
VL: DIVMTQSPDSLAVSLGERATINCKASQDVRTAVAWYQQKPGQPPKLLIYSASYRYTGVPDRFSGSGSGTDFTLTISSLQAEDVAVYYCHQHYITPWTFGGGTKVEIKR
notes: Humanized from 2O18
Kd (hTIGIT-Fc): 0.13 nM
koff (hTIGIT-Fc): 0.000121 s⁻¹
kon (hTIGIT-Fc): 935000 M⁻¹ s⁻¹
Kd (Cyno TIGIT-Fc): 1.42 nM
koff (Cyno TIGIT-Fc): 0.0003 s⁻¹
kon (Cyno TIGIT-Fc): 211000 M⁻¹ s⁻¹
EC50, luciferase reporter gene experiment (T cell activation) [1]: 0.14 µg/mL
EC50 [2]: 0.0232 µg/mL
IC50 [5]: 0.0693 µg/mL

B9: chimeric antibody ch1 (antibody, human IgG4, V domains shown)
VH: EVQLQQSGPELVKPGASVKISCKTSGYAFTEYTMHWVKQSHGKSLEWIGGINPNTGGTTYNQKFKGKATLTVDKSSSTAYMEFRSLTSEDSAVYYCAKLLRLMYYFDYWGQGTTLTVSS
VL: DIVMTQSHKFMSTSVGDRVSITCKASQDVRTAVAWYQQKPGQSPKLLIYSASYRYTGVPDRFTGSGSGTDFTFTISSVQAEDLALYYCHQHYITPWTFGGGTKLEIK
notes: IgG4 chimeric antibody; also called 2O18-ch-HC / 2O18-ch-LC
EC50, luciferase reporter gene experiment (T cell activation) [1]: 0.0766 µg/mL
EC50 [3]: 0.0325 µg/mL

The next lines start with the values.

EC50, luciferase reporter gene experiment (T cell activation) [1]: 0.109 µg/mL
EC50 [2]: 0.0086 µg/mL
B1: humanized antibody hu62 (antibody, V domains shown)
VH: QVQLVQSGAEVKKPGASVKVSCKASGYTFTNYWILWIRQAPGQGLEWMGDIYPGGHYTNYNEKFQGRVTLTADTSSSTAYMELSSLRSEDTAVYYCTRYYGPYAMDYWGQGTLVTVSS
VL: DIQMTQSPSSLSASVGDRVTITCRSSQSLLYNSNQKNYLAWYQQKPGKAPKLLIYWASTGESGVPSRFSGSGSGTDFTLTISSLQPEDFATYYCQQYYSYPFTFGQGTKVEIK
notes: as for B2

EC50, luciferase reporter gene experiment (T cell activation) [1]: 0.0884 µg/mL
EC50 [2]: 0.00983 µg/mL
B3: humanized antibody hu81 (antibody, V domains shown)
VH: QVQLVQSGAEVKKPGASVKVSCKASGYTFTNYWILWIRQAPGQGLEWMGDIYPGGHYTNYNEKLQGRVTLTADTSSSTAYMELRSLRSDDTAVYYCTRYYGPYAMDYWGQGTLVTVSS
VL: DIVMTQSPLSLPVTPGEPASISCRSSQSLLYNSNQKNYLAWYLQKPGQSPQLLIYWASTGESGVPDRFSGSGSGTDFTLKISRVEAEDVGVYYCQQYYSYPFTFGQGTKVEIK
notes: as for B2

RLU fold change, NFAT-luciferase reporter, antibody alone [4]: 2.3 fold
RLU fold change, NFAT-luciferase reporter, with JS001 [4]: 2.3 fold
B5: hybridoma antibody 23O20 (antibody, V domains shown)
VH: QVQLQQSGDELVRPGTSVKVSCQAAGYTFTNYWILWIKQRPRHGLEWIGDIYPGGHYTNYNEKFKGKATLTADTSSSTAYMQLNSLTSEDSAIYYCTRYYGPYAMDYWGQGTSVTVSS
VL: DIVMSQSPSSLPVSVGEKVTMSCKSSQSLLYNSNQKNYLAWYQQIPGQSPKLLIYWASTGESGVPDRFTGSGSGTDFTLTISSVKAEDLAVYYCQQYYSYPFTFGSGTKLEIK

Kd (hTIGIT-Fc): 0.209 nM
koff (hTIGIT-Fc): 0.000163 s⁻¹
kon (hTIGIT-Fc): 777000 M⁻¹ s⁻¹
Kd (Cyno TIGIT-Fc): 1.45 nM
koff (Cyno TIGIT-Fc): 0.000329 s⁻¹
kon (Cyno TIGIT-Fc): 226000 M⁻¹ s⁻¹
EC50, luciferase reporter gene experiment (T cell activation) [1]: 0.0424 µg/mL
EC50 [2]: 0.0378 µg/mL
IC50 [5]: 0.0587 µg/mL
B7: humanized antibody hu20 (antibody, human IgG4 S228P, kappa, V domains shown)
VH: QVQLVQSGAEVKKPGASVKVSCKTSGYAFTEYTMHWVRQAPGKGLEWMGGINPNTGGTTYNQKFQGRVTLTVDKSSSTAYMELSSLRSEDTVVYYCAKLLRLMYYFDYWGQGTLVTVSS
VL: DIQMTQSPSSLSASVGDRVTITCQASQDVRTAVAWYQQKPGKAPKLLIYSASYRYTGVPSRFSGSGSGTDFTFTISSLQPEDIATYYCHQHYITPWTFGGGTKVEIKR
notes: Humanized from 2O18

RLU fold change, NFAT-luciferase reporter (Jurkat hPD-1/hTIGIT + CHO hPD-L1/hPVRL2), with JS001 [4]: 3.3 fold
RLU fold change, NFAT-luciferase reporter, antibody alone [4]: 6.3 fold
B8: hybridoma antibody 2O18 (antibody, V domains shown)
VH: EVQLQQSGPELVKPGASVKISCKTSGYAFTEYTMHWVKQSHGKSLEWIGGINPNTGGTTYNQKFKGKATLTVDKSSSTAYMEFRSLTSEDSAVYYCAKLLRLMYYFDYWGQGTTLTVSS
VL: DIVMTQSHKFMSTSVGDRVSITCKASQDVRTAVAWYQQKPGQSPKLLIYSASYRYTGVPDRFTGSGSGTDFTFTISSVQAEDLALYYCHQHYITPWTFGGGTKLEIK
